The record followed here is US20030105278A1 (MERK, published 2003).

The target of experiment [1] is T1, human MCH receptor expressed from the open reading frame cDNA SEQ. ID. NO. 1 in 293-AEQ17 cells (human, UniProt Q99705 1-353). Description: cell-based or functional assay.
Experiment [2] addresses T2, human MCH receptor (membranes from a stable CHO or HEK-293 cell line) (human, UniProt Q99705 1-353).
T2 construct: whole, on cells; also called cloned human MCH receptor (CHO clone)
Description: competition vs [125I]-human MCH (Phe13,Tyr19); human MCH receptor cell membranes (Example 3).

The target in experiment [3] is T1, human MCH receptor expressed from the …. Description: cell-based or functional assay. The source holds these as a separate data set.
For experiment [4] the target is unchanged. In words: cell-based or functional assay. The source holds these as a separate data set.
For experiment [5] the target is unchanged. Description: cell-based or functional assay. This is another data set of the same source.
Experiment [6] has the same target. In words: cell-based or functional assay. This is another data set of the same source.
In experiment [7] the target is T2, human MCH receptor (membranes from a …). In words: competition vs [125I]-human MCH (Phe13,Tyr19); human MCH receptor cell membranes (Example 3). The source holds these as a separate data set.

Where two headings read alike, the source gives them in different places. Bridges are numbered along the chain shown (N, C = ends).

T2 sequence (Q99705 whole entry): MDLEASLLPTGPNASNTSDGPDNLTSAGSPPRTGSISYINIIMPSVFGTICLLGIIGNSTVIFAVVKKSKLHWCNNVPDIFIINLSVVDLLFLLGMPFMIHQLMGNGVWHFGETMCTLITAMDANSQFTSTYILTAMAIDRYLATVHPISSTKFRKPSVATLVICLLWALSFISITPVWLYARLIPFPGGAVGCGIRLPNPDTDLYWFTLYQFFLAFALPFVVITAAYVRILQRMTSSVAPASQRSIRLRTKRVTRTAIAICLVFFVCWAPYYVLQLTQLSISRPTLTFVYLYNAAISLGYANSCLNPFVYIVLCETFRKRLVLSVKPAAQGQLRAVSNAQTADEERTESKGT
T1 sequence (Q99705 whole entry): as above

B1: MCH analog SEQ. ID. NO. 65 (position 13: (2′)Nal) (peptide)
peptide: RCMLGRVXRPC
modifications: (2′)-naphthylalanine at position 13; N-terminal acetyl, C-terminal amide, Cys-Cys disulfide as in SEQ. ID. NO. 7
In the case of B1, the Activation % in experiment [1] came out at 105%.

B2: MCH analog SEQ. ID. NO. 37 (position 6: H) (peptide)
peptide: H-CMLGRVYRPC-NH2
modifications: disulfide 1-10
notes: ID; NO; 7 peptide; MCH position numbering
The term IC50 denotes the concentration that gives 50% inhibition. High values mean lower potency, low ones higher potency. Usually EC50 stands for the midpoint of the concentration-response curve. On to B2, for which the IC50 in experiment [2] worked out at 12 nM. Moreover, in experiment [3], the Activation % worked out at 120% and a half-maximal effect (EC50) was put at 809 nM.

B3: MCH analog SEQ. ID. NO. 49 (position 10: Nle) (peptide)
peptide: RCMLXRVYRPC
modifications: norleucine at position 10; N-terminal acetyl, C-terminal amide, Cys-Cys disulfide as in SEQ. ID. NO. 7
B3 displayed an Activation % in experiment [4] of 106%.

B4: MCH analog SEQ. ID. NO. 30 (Sar^15) (peptide)
peptide: RCMLGRVYRXC
modifications: sarcosine at position 15; N-terminal acetyl, C-terminal amide, Cys-Cys disulfide as in SEQ. ID. NO. 7
Take B4: in experiment [5], the Activation % was 113% and it took 25 nM to reach a half-maximal effect (EC50).

B5: MCH analog SEQ. ID. NO. 67 (position 13: Phe(pNH2)) (peptide)
peptide: RCMLGRVXRPC
modifications: Phe(pNH2) at position 13; N-terminal acetyl, C-terminal amide, Cys-Cys disulfide as in SEQ. ID. NO. 7
Regarding B5, the Activation % in experiment [1] was found to be 88%.

B6: MCH analog SEQ. ID. NO. 69 (position 13: Cha) (peptide)
peptide: RCMLGRVXRPC
modifications: Cha (cyclohexylalanine) at position 13; N-terminal acetyl, C-terminal amide, Cys-Cys disulfide as in SEQ. ID. NO. 7
B6 displayed an Activation % in experiment [1] of 93%.

B7: MCH analog SEQ. ID. NO. 43 (position 6: Ac-D-Pro) (peptide)
peptide: XCMLGRVYRPC
modifications: Ac-D-Pro at position 6; C-terminal amide, Cys-Cys disulfide as in SEQ. ID. NO. 7
As to B7, the Activation % in experiment [3] was 96%.

B8: MCH analog SEQ. ID. NO. 55 (position 10: D-Leu) (peptide)
peptide: RCMLXRVYRPC
modifications: D-Leu at position 10; N-terminal acetyl, C-terminal amide, Cys-Cys disulfide as in SEQ. ID. NO. 7
Regarding B8, the Activation % in experiment [4] stood at 23%.

B9: MCH analog SEQ. ID. NO. 16 (D-Cys^7) (peptide)
peptide: RXMLGRVYRPC
modifications: D-Cys^7; N-terminal acetyl, C-terminal amide, Cys-Cys disulfide as in SEQ. ID. NO. 7
In experiment [6], B9 displayed an Activation % of 34%.

B10: MCH analog SEQ. ID. NO. 31 (position 6: Ac-Ala) (peptide)
peptide: Ac-ACMLGRVYRPC-NH2
modifications: disulfide 2-11
SMILES: CSCC[C@@H]1NC(=O)[C@@H](NC(=O)[C@H](C)NC(C)=O)CSSC[C@@H](C(N)=O)NC(=O)[C@@H]2CCCN2C(=O)[C@H](CCCNC(=N)N)NC(=O)[C@H](Cc2ccc(O)cc2)NC(=O)[C@H](C(C)C)NC(=O)[C@H](CCCNC(=N)N)NC(=O)CNC(=O)[C@H](CC(C)C)NC1=O
notes: as for B2
B10 came in with an IC50 in experiment [2] of 27 nM. In experiment [3], the Activation % came out at 135% and the “EC50” value turned out to be 114 nM.

B11: MCH analog SEQ. ID. NO. 53 (position 10: Lys) (peptide)
peptide: RCMLKRVYRPC
modifications: N-terminal acetyl, C-terminal amide, Cys-Cys disulfide as in SEQ. ID. NO. 7
notes: as for B2
Take B11: in experiment [7], the IC50 is 110 nM. In addition, in experiment [4], the Activation % amounted to 25% and the “EC50” value was found to be 4500 nM.

B12: MCH analog SEQ. ID. NO. 54 (position 10: Glu) (peptide)
peptide: RCMLERVYRPC
modifications: N-terminal acetyl, C-terminal amide, Cys-Cys disulfide as in SEQ. ID. NO. 7
notes: as for B2
As for B12, the IC50 in experiment [7] was determined as 190 nM. In experiment [4], the Activation % is 12% and the “EC50” value was greater than 10000 nM.

B13: MCH analog SEQ. ID. NO. 33 (position 6: Ac-Pro) (peptide)
peptide: PCMLGRVYRPC
modifications: Ac-Pro at position 6 (N-terminal acetyl); C-terminal amide, Cys-Cys disulfide as in SEQ. ID. NO. 7
notes: as for B2
For the molecule B13, the IC50 in experiment [2] is 3.4 nM. In experiment [3], the Activation % turned out to be 133% and the “EC50” value turned out to be 59 nM.

B14: MCH analog SEQ. ID. NO. 35 (position 6: Ac-Ser) (peptide)
peptide: SCMLGRVYRPC
modifications: Ac-Ser at position 6 (N-terminal acetyl); C-terminal amide, Cys-Cys disulfide as in SEQ. ID. NO. 7
notes: as for B2
Take B14: the IC50 in experiment [2] stood at 4.5 nM. In experiment [3], the Activation % was found to be 120% and the “EC50” value turned out to be 207 nM.

B15: MCH analog SEQ. ID. NO. 51 (position 10: Asn) (peptide)
peptide: RCMLNRVYRPC
modifications: N-terminal acetyl, C-terminal amide, Cys-Cys disulfide as in SEQ. ID. NO. 7
notes: as for B2
For B15, the IC50 in experiment [7] turned out to be 0.23 nM. Also, in experiment [4], the Activation % is 106% and it took 23 nM to reach a half-maximal effect (EC50).

B16: MCH analog SEQ. ID. NO. 47 (position 10: Ala) (peptide)
peptide: RCMLARVYRPC
modifications: N-terminal acetyl, C-terminal amide, Cys-Cys disulfide as in SEQ. ID. NO. 7
notes: as for B2
With B16, in experiment [7], the IC50 came out at 0.59 nM. In addition, in experiment [4], the Activation % is 104% and the “EC50” value stood at 31 nM.

B17: MCH analog SEQ. ID. NO. 52 (position 10: Ser) (peptide)
peptide: RCMLSRVYRPC
modifications: N-terminal acetyl, C-terminal amide, Cys-Cys disulfide as in SEQ. ID. NO. 7
notes: as for B2
B17: the IC50 in experiment [7] turned out to be 0.32 nM. Moreover, in experiment [4], the Activation % was 104% and the “EC50” value turned out to be 65 nM.

B18: MCH analog SEQ. ID. NO. 48 (position 10: Leu) (peptide)
peptide: RCMLLRVYRPC
modifications: N-terminal acetyl, C-terminal amide, Cys-Cys disulfide as in SEQ. ID. NO. 7
notes: as for B2
Take B18: the IC50 in experiment [7] worked out at 0.06 nM. Moreover, in experiment [4], the Activation % turned out to be 106% and the “EC50” value stood at 23 nM.

B19: MCH analog SEQ. ID. NO. 50 (position 10: Pro) (peptide)
peptide: RCMLPRVYRPC
modifications: N-terminal acetyl, C-terminal amide, Cys-Cys disulfide as in SEQ. ID. NO. 7
notes: as for B2
The molecule B19 came in with an IC50 in experiment [7] of 700 nM. For the same molecule, in experiment [4], the Activation % was determined as 4% and the “EC50” value turned out to be 519 nM.

B20: MCH analog SEQ. ID. NO. 36 (position 6: Ac-Glu) (peptide)
peptide: ECMLGRVYRPC
modifications: Ac-Glu at position 6 (N-terminal acetyl); C-terminal amide, Cys-Cys disulfide as in SEQ. ID. NO. 7
notes: as for B2
B20 displayed an IC50 in experiment [2] of 19 nM. In experiment [3], the Activation % came to 113% and the midpoint of the response, the EC50, lay at 935 nM.
